Measurements taken from US20180362668A1 (JIANGSU ALPHAMAB BIOPHARMACEUTICALS, published 2018).
Where a chain is given by its changes, count along the chain named. Names may count otherwise.

Legend:
[1] = biological target: the molecule itself; test: non-reducing SDS-PAGE densitometry of Protein A-purified co-transfection product; chain A:chain B vectors 4:1
Description: (§1) The cotransfection ratio of recombinant expression vector of the chain A to that of the chain B was 4:1, 1:1 and 1:4.

[2] = biological target: the molecule itself; test: non-reducing SDS-PAGE of Protein A-purified co-transfection product; chain A:chain B vectors 1:4
Description: (§2) The respective transient transfection products were obtained through Protein A affinity chromatography.

[3] = biological target: the molecule itself; test: non-reducing SDS-PAGE densitometry of Protein A-purified co-transfection product; chain A:chain B vectors 1:1
[4] = biological target: the molecule itself; test: as above; remark: listed apart in the source
Description: The cotransfection ratio of recombinant expression vector of the chain A to that of the chain B was 1:1.

[5] = biological target: the molecule itself; test: non-reducing SDS-PAGE densitometry of Protein A-purified co-transfection product; chain A:chain B vectors 1:4
Description: as §1

[6] = biological target: the molecule itself; test: non-reducing SDS-PAGE densitometry of Protein A-purified co-transfection product; chain A:chain B vectors 1:1; remark: listed apart in the source
Description: as §1

[7] = biological target: the molecule itself; test: non-reducing SDS-PAGE of Protein A-purified co-transfection product; chain A:chain B vectors 4:1
Description: as §2

[8] = biological target: the molecule itself; test: non-reducing SDS-PAGE densitometry of Protein A-purified co-transfection product; chain A:chain B vectors 1:1; remark: listed apart in the source
Description: (§3) The cotransfection ratio of recombinant expression vector of the chain A to that of the chain B was 4:1, 1:1 and 1:4. The transiently expressed culture supernatant was collected after 5-6 days of cultivation.

[9] = biological target: the molecule itself; test: non-reducing SDS-PAGE densitometry of Protein A-purified co-transfection product; chain A:chain B vectors 1:4; remark: listed apart in the source
Description: as §3

[10] = biological target: the molecule itself; test: non-reducing SDS-PAGE densitometry of Protein A-purified co-transfection product; chain A:chain B vectors 4:1; remark: listed apart in the source
Description: as §3

B1: ScFv-Fc fusion protein chain A with Y349C + T366W + K409A (Fc fusion)
chain: EVQLLESGGGVVQPGRSLRLSCIASGFTFSSYPMTWVRQAPGKGLEWVASISYDGSYKYKADSMKGRLTISRDNSKNTLYLEMNSLTAEDTAVYYCARTAFFNAYDFWGQGTLVTVSSASTKGPSVGGGGSGGGGSEIVMTQSPATLSVSPGERATLSCRASQSVRSNLAWYQQKPGQAPRLLIYAASTRATGIPARFSGSGSGTEFTLTISSLQSEDFAVYYCQQYNEWFRTSGQGTKVEIKRDKTHTCPPCPAPELLGGPSVFLFPPKPKDTLMISRTPEVTCVVVDVSHENPEVKFNWYVDGVEVHNAKTKPREEQYNSTYRVVSVLTVLHQDWLNGKEYKCKVSNKALPAPIEKTISKAKGQPREPQVCTLPPSRDELTKNQVSLWCLVKGFYPSDIAVEWESNGQPENNYKTTPPVLDSDGSFFLYSALTVDKSRWQQGNVFSCSVMHEALHNHYTQKSLSLSPGK
notes: Positions are EU index; also called combination 4 chain A
[1]
  ScFv-Fc homodimer (%): 46%
[2]
  ScFv-Fc homodimer (%): 4%
[3]
  ScFv-Fc homodimer (%): 10%
[4]
  ScFv-Fc homodimer (%): 21%
[5]
  ScFv-Fc homodimer (%): < 1%
[6]
  ScFv-Fc homodimer (%): 13%
[7]
  ScFv-Fc homodimer (%): 46%

B2: ScFv-Fc fusion protein chain A with T366W + K409A + Y349D (Fc fusion)
chain: B1 chain with C373D
notes: Positions are EU index; it is not used here; also called combination 12 chain A
[1]
  ScFv-Fc homodimer (%): 48%
[5]
  ScFv-Fc homodimer (%): 9%
[6]
  ScFv-Fc homodimer (%): 14%

B3: ScFv-Fc fusion protein chain A with T366W + K409A + K392D (Fc fusion)
chain: B1 chain with C373Y, K416D
notes: Positions are EU index; also called combination 10 chain A
[1]
  ScFv-Fc homodimer (%): 39%
[5]
  ScFv-Fc homodimer (%): < 1%
[6]
  ScFv-Fc homodimer (%): 7%

B4: ScFv-Fc fusion protein chain A with Y349C + T366W + F405K (Fc fusion)
chain: B1 chain with F429K, A433K
notes: Positions are EU index; also called combination 2 chain A
[2]
  ScFv-Fc homodimer (%): < 1%
[3]
  ScFv-Fc homodimer (%): 10%
[4]
  ScFv-Fc homodimer (%): 17%
[8]
  ScFv-Fc homodimer (%): 9%
[9]
  ScFv-Fc homodimer (%): < 1%
[10]
  ScFv-Fc homodimer (%): 28%
[7]
  ScFv-Fc homodimer (%): 23%

B5: ScFv-Fc fusion protein chain A with T366W + F405K + D399S (Fc fusion)
chain: B1 chain with C373Y, D423S, F429K, A433K
notes: Positions are EU index; also called combination 15 chain A
[8]
  ScFv-Fc homodimer (%): 6%
[9]
  ScFv-Fc homodimer (%): < 1%
[10]
  ScFv-Fc homodimer (%): 28%

B6: ScFv-Fc fusion protein chain A with T366W + F405K (Fc fusion)
chain: B1 chain with C373Y, F429K, A433K
notes: Positions are EU index; also called combination 16 chain A
[8]
  ScFv-Fc homodimer (%): 5%
[9]
  ScFv-Fc homodimer (%): 3%
[10]
  ScFv-Fc homodimer (%): 23%

B7: ScFv-Fc fusion protein chain A with T366W + F405K + Y349D + S354D (Fc fusion)
chain: B1 chain with C373D, S378D, F429K, A433K
notes: Positions are EU index; also called combination 18 chain A
[8]
  ScFv-Fc homodimer (%): 9%
[9]
  ScFv-Fc homodimer (%): 5%
[10]
  ScFv-Fc homodimer (%): 29%

B8: ScFv-Fc fusion protein chain A with Y349C + T366W + K409A + Q347R (Fc fusion)
chain: B1 chain with Q371R
notes: Positions are EU index; also called combination 8 chain A
[4]
  ScFv-Fc homodimer (%): 21%

B9: ScFv-Fc fusion protein chain A with T366W + K409A (Fc fusion)
chain: B1 chain with C373Y
notes: Positions are EU index; also called combination 11 chain A
[1]
  ScFv-Fc homodimer (%): 52%
[5]
  ScFv-Fc homodimer (%): 11%
[6]
  ScFv-Fc homodimer (%): 15%

B10: ScFv-Fc fusion protein chain A with Y349C + T366W (Fc fusion)
chain: B1 chain with A433K
notes: also called combination KH chain A; combination 1 chain A
[2]
  ScFv-Fc homodimer (%): 10%
[7]
  ScFv-Fc homodimer (%): 52%

B11: ScFv-Fc fusion protein chain A with Y349C + T366W + K409E (Fc fusion)
chain: B1 chain with A433E
notes: Positions are EU index; also called combination 3 chain A
[3]
  ScFv-Fc homodimer (%): 25%

B12: ScFv-Fc fusion protein chain A with T366W + K409A + Y349D + S354D (Fc fusion)
chain: B1 chain with C373D, S378D
notes: Positions are EU index; also called combination 13 chain A
[1]
  ScFv-Fc homodimer (%): 37%
[5]
  ScFv-Fc homodimer (%): 2%
[6]
  ScFv-Fc homodimer (%): 10%

B13: VhH-Fc fusion protein chain B with T366S + L368G + Y407A + K409A (Fc fusion)
chain: QVQLQESGGGSVQAGGSLRLSCAASEYIYSSYCMAWFRQAPGKEREGVAVIGSDGSTSYADSVKGRFTISKDNAKNTLYLQMNSLKPEDTAMYYCAAIGGYCYQPPYEYQYWGQGTQVTVSSEPKSSDKTHTCPPCPAPELLGGPSVFLFPPKPKDTLMISRTPEVTCVVVDVSHEDPEVKFNWYVDGVEVHNAKTKPREEQYNSTYRVVSVLTVLHQDWLNGKEYKCKVSNKALPAPIEKTISKAKGQPREPQVYTLPPSRDELTKNQVSLSCGVKGFYPSDIAVEWESNGQPENNYKTTPPVLDSDGSFFLASALTVDKSRWQQGNVFSCSVMHEALHNHYTQKSLSLSPGK
notes: Positions are EU index; also called combination 16 chain B
[8]
  VhH-Fc homodimer (%): 7%
[9]
  VhH-Fc homodimer (%): 4%
[10]
  VhH-Fc homodimer (%): < 1%

B14: VhH-Fc fusion protein chain B with T366S + L368G + Y407A + F405K (Fc fusion)
chain: B13 chain with F312K, A316K
notes: Positions are EU index; also called combination 11 chain B
[1]
  VhH-Fc homodimer (%): 0%
[5]
  VhH-Fc homodimer (%): 0%
[6]
  VhH-Fc homodimer (%): 0%

B15: Fc protein chain B with D356C + T366S + L368A + Y407V + F405K + Q347R (other)
chain: DKTHTCPPCPAPELLGGPSVFLFPPKPKDTLMISRTPEVTCVVVDVSHEDPEVKFNWYVDGVEVHNAKTKPREEQYNSTYRVVSVLTVLHQDWLNGKEYKCKVSNKALPAPIEKTISKAKGQPREPRVYTLPPSRCELTKNQVSLSCAVKGFYPSDIAVEWESNGQPENNYKTTPPVLDSDGSFKLVSKLTVDKSRWQQGNVFSCSVMHEALHNHYTQKSLSLSPGK
notes: also called combination 7 chain B
[4]
  Proportion of Fc homodimer (%): 12%

B16: Fc protein chain B with D356C + T366S + L368A + Y407V + F405K + K360E + Q347E (other)
chain: B15 chain with R127E, K140E
notes: also called combination 8 chain B
[4]
  Proportion of Fc homodimer (%): 8%
